Measured values from patent publication US5804555A, “Antioxidant” (Morinaga Milk Industry Co., Ltd., priority 1992, dated 1998).

Experiment: Test 1: antioxidant effect on linoleic acid, peroxides by ferric thiocyanate method
Type: biochemical
Settings: 0.2% added to linoleic acid, 60° C.
Protocol: A sample was prepared by adding dl-α tocopherol (manufactured by Wako Jun-yaku Kogyo Company), bovine lactoferrin (manufactured by Sigma Company), hydrolysate of lactoferrin (prepared by the same method as in the Example 2), or peptide (prepared by the same method as in the Example 3) to a final concentration of 0.2% (weight percentage; same applies hereafter except for the degree of decomposition) to commercially available linoleic acid (manufactured by Wako Jun-Yaku Kogyo Company) containing no additive. Hereafter, the thus prepared samples are individually referred to as […].
Antioxidant effect of the individual samples was tested by the method of Mitsuda et al.(Eiyo to Shokuryo, Vol. 19, p. 210, 1966) described below.
The above-mentioned samples were added to a mixed solution containing 10 ml of ethanol, 10 ml of 0.1M phosphate buffer solution (pH: 7.0), and 5 ml of deionized water so as to achieve a final concentration of linoleic acid of […](mol/l). This solution was placed in a vial bottle having a capacity of 50 ml, and the closely plugged bottle was held in an incubator at 60° C. The total volume was always adjusted to 25 ml by reducing the above-mentioned ionized water, depending upon the quantity of added sample. At prescribed time intervals, 0.1 ml was sampled from this vial bottle to measure the quantity of peroxides by the following ferric thiocyanate method.
To the sample solution in an amount of 0.1 ml, 4.7 ml of 75% ethanol, 0.1 ml of 30% ammonium rhodanide, and 0.1 ml of 3.5% hydrochloric acid solution of 2×10^-2 M ferrous chloride were added, and absorbance at 500 nm was measured upon the lapse of just three minutes.

B1: Sample 3: Test 1 Sample 3: bovine lactoferrin (Sigma Company) added to linoleic acid (protein)
chain: APRKNVRWCTISQPEWFKCRRWQWRMKKLGAPSITCVRRAFALECIRAIAEKKADAVTLDGGMVFEAGRDPYKLRPVAAEIYGTKESPQTHYYAVAVVKKGSNFQLDQLQGRKSCHTGLGRSAGWIIPMGILRPYLSWTESLEPLQGAVAKFFSASCVPCIDRQAYPNLCQLCKGEGENQCACSSREPYFGYSGAFKCLQDGAGDVAFVKETTVFENLPEKADRDQYELLCLNNSRAPVDAFKECHLAQVPSHAVVARSVDGKEDLIWKLLSKAQEKFGKNKSRSFQLFGSPPGQRDLLFKDSALGFLRIPSKVDSALYLGSRYLTTLKNLRETAEEVKARYTRVVWCAVGPEEQKKCQQWSQQSGQNVTCATASTTDDCIVLVLKGEADALNLDGGYIYTAGKCGLVPVLAENRKSSKHSSLDCVLRPTEGYLAVAVVKKANEGLTWNSLKDKKSCHTAVDRTAGWNIPMGLIVNQTGSCAFDEFFSQSCAPGADPKSRLCALCAGDDQGLDKCVPNSKEKYYGYTGAFRCLAEDVGDVAFVKNDTVWENTNGESTADWAKNLNREDFRLLCLDGTRKPVTEAQSCHLAVAPNHAVVSRSDRAAHVKQVLLHQQALFGKNGKNCPDKFCLFKSETKNLLFNDNTECLAKLGGRPTYEEYLGTEYVTAIANLKKCSTSPLLEACAFLTR
For B1, the “Degree of peroxidation (absorbance at 500 nm)” value (from here on “Degree of peroxidation”) (period of preservation 0 days) was 0, the “Degree of peroxidation” value (period of preservation 3 days) was 0.23 and the “Degree of peroxidation” value (period of preservation 6 days) was 0.30. For the same molecule, the “Degree of peroxidation” value (period of preservation 10 days) was 0.31 and the “Degree of peroxidation” value (period of preservation 13 days) was 0.32.
